# In US20220024983A1, “BICYCLIC PEPTIDE LIGANDS SPECIFIC FOR IL-17” (BicycleRD Limited, priority 2018, published 2022):
# *1 amine or outer side, *2 acyl side, *3 side chain or, on linkers, in order; H or OH if unused. Bridges are numbered along the chain shown (N, C = ends). Where no end group is shown, it is not given here. TBMB = c1c(C[*:1])cc(C[*:3])cc1C[*:2]
# T1: human IL-17A dimer (human, UniProt Q16552 24-155)
# T1 construct: also called hIL17-A
# T1 sequence (looked up): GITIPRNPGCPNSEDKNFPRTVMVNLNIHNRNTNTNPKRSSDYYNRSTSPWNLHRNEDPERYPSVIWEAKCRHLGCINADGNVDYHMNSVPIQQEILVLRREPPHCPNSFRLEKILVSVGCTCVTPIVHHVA
# T2: mouse IL-17A dimer (mouse, UniProt Q62386 26-158)
# T2 sequence (looked up): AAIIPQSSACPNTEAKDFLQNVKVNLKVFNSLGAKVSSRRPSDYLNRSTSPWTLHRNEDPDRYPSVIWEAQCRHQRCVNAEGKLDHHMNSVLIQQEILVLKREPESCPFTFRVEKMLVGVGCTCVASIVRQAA
# T3: human IL-17E (human, UniProt Q9H293 33-177)
# T3 construct: also called hIL17-E; IL-25
# T3 sequence (looked up): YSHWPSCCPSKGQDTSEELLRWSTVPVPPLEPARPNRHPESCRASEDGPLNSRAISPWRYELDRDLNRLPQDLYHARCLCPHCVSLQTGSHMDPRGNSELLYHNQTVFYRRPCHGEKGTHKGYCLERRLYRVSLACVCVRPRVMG
# Experiments:
# human IL-17A dimer [1] = biological target: T1, human IL-17A dimer; assay: binding assay, method analogous to WO 2011/141823
# mouse IL-17A dimer = biological target: T2, mouse IL-17A dimer; assay: binding assay, method analogous to WO 2011/141823
# human IL-17A dimer [2] = biological target: T1, human IL-17A dimer; assay: binding assay, method analogous to WO 2011/141823; Mean column, n=2
# human IL-17A dimer [3] = biological target: T1, human IL-17A dimer; assay: binding assay, method analogous to WO 2011/141823; remark: listed apart in the source
# human IL-17A dimer [4] = biological target: T1, human IL-17A dimer; assay: FP competition, competitor: tracer BCY2311
# Method: (§1) Affinity determination by fluorescence polarization (FP) competition. […] Peptides were diluted to an appropriate concentration in assay buffer (PBS+0.01% Tween20, adjusted to pH7.4 using NaOH (1M)) with a maximum of 1% DMSO, then serially diluted 1 in 2 into assay buffer. […] The PHERAstar FS was set at 25° C. with 200 flashes per well and a positioning delay of 0.1 second, with each well measured at 5 to 10 minute intervals for 60 minutes. […] Data analysis was performed in Dotmatics where mP values were fit to the Cheng Prusoff equation in order to generate a Ki value.
# human IL-17A dimer [5] = biological target: T1, human IL-17A dimer; assay: FP competition, competitor: tracer BCY2311; Ki Mean column, n=6
# Method: as §1
# human IL-17A dimer [6] = biological target: T1, human IL-17A dimer; assay: FP competition, competitor: tracer BCY2315
# Method: as §1
# human IL-17A dimer [7] = biological target: T1, human IL-17A dimer; assay: FP competition, competitor: tracer BCY2315; Ki Mean column, n=2
# Method: as §1
# human IL-17E = biological target: T3, human IL-17E; assay: binding assay, method analogous to WO 2011/141823; column head prints hIL17-F, read as IL-17E by paragraph 30
binder,measurement,setting,value
"ACPQDLELCTFLFGDCAXXXXXXK (Ci, Cii and Ciii cyclised with TBMB; six sarcosines (written X) after the C-terminal Ala; fluorescein (Fl) on the C-terminal Lys) [BCY2310]",Kd,human IL-17A dimer [1],26.6 nM
same,Kd,mouse IL-17A dimer,110 nM
same,Kd,human IL-17A dimer [2],26.6 nM
"CPENELYCFLSSQQC (linker 1-8-15 via TBMB, Bicyclic peptide) [BCY2232]",Kd,human IL-17A dimer [3],398 nM
"Ac-CYEAELCAFLGLC (linker 1-7-13 via TBMB, Bicyclic peptide) [BCY2240 [Ac-(SEQ ID NO: 36)]]",Ki,human IL-17A dimer [4],26.9 nM
same,Ki,human IL-17A dimer [5],25.7 nM
"CYEDELCEFLALC (linker 1-7-13 via TBMB, Bicyclic peptide) [BCY2249]",Ki,human IL-17A dimer [6],65 nM
same,Ki,human IL-17A dimer [7],65 nM
"ACGYDYYCALYDICA (linker 2-8-14 via TBMB, Bicyclic peptide) [BCY2240 [A-(SEQ ID NO: 56)-A]]",Kd,human IL-17E,198 nM
